For this assay, the target named is FcγRI (UniProt P12314). In words: BLI. (Biolayer interferometry detects binding as a change in optical thickness at a sensor tip.)

Results on one substance are retold here after PMC7990132.

Usually Kd stands for the constant that tells how readily two partners part at equilibrium. Read a low Kd as a tighter complex.

Sequence of UniProt P12314 (P12314 16-374): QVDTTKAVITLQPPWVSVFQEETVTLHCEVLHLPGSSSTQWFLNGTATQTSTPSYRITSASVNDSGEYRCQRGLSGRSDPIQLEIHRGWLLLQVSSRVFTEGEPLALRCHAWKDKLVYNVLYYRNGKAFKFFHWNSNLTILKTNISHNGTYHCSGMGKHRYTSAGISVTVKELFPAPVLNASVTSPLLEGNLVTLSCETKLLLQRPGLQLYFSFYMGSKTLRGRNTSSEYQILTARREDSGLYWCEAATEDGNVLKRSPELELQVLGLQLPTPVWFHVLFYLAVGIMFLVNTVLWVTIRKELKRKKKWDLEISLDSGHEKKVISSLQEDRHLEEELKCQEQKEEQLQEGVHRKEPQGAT

In the case of Sintilimab (antibody), the dissociation constant (Kd) was determined as 10 nM.
